Results reported in patent publication US20230272390A1, “COMPOSITIONS AND METHODS FOR HEMOGLOBIN PRODUCTION” (THE CHILDREN'S HOSPITAL OF PHILADELPHIA, priority 2020, published 2023).

What was measured:
[1] = target: oligo containing the consensus motif; assay: Fluorescence polarization DNA binding assay, consensus oligo; parameters: species or system human; conditions: purified GST fusion protein, 17-bp oligo containing the consensus motif, read-out: dissociation constant (KD)
Protocol: The fragment of Human ZNF410 (NP_001229855.1) comprising of five zinc finger domains ZF1-5 (residues 217-366) was cloned into pGEX-6P-1 vector with a GST fusion tag (pXC2180). The plasmid was transformed into Escherichia coli strain BL21-Codon-plus(DE3)-RIL (Stratagene). Bacteria was grown in LB broth in a shaker at 37° C. until reaching the log phase (A600 nm between 0.4 and 0.5), the shaker temperature was then set to 16° C. and 25 μM ZnCl2 was added to the cell culture. When the shaker temperature reached 16° C. and A600 nm reached ˜0.8, the protein expression was induced by the addition of 0.2 mM isopropyl-3-D-thiogalactopyranoside with subsequent growth for 20 hours at 16° C. […]
Fluorescence polarization (FP) method was used to measure the binding affinity using a Synergy™ 4 Microplate Reader (BioTek). […]
To further gain insight into the molecular basis of how the ZNF410 tandem ZF domain recognizes its targeting DNA sequence, crystallization of the ZNF410-DNA complex was performed. The binding affinity of the ZNF410 ZF domain (ZF1-5) with the consensus motif was quantified by fluorescence polarization using purified GST fusion protein (Patel, et al. (2016) Methods Enzymol., 573:387-401). […]

[2] = system: motifs from the CHD4 promoter and enhancer sites; assay: EMSA with COS-7 nuclear extracts and radiolabeled probes; assay type: binding, human; conditions: COS nuclear extracts, FLAG-tagged constructs, radiolabeled CHD4 motif probes
Protocol: Nuclear extracts were prepared from COS-7 cells transiently transfected with ZNF410 full-length and ZNF410 ZF1-5 plasmids. FuGENE® 6 (Promega) was used to transfect 5 μg of vector into 100 mm plates of COS-7 cells. A pcDNA3 empty vector was used as control. Cells were harvested 48 hours after transfection and nuclear extracts prepared (Andrews, et al. (1991) Nucleic Acids Res., 19:2499).
EMSAs were performed (Crossley, et al. (1996) Mol. Cell Biol., 16:1695-1705). The sense oligonucleotide was labelled with [γ-^32P]-adenosine triphosphate (Perkin Elmer) and boiled at 100° C. for 1 minute before addition of the antisense oligonucleotide and annealing of probe via slow cooling from 100° C. to room temperature. Probes were purified using Quick Spin Columns for radio-labelled DNA Purification (Roche). Nuclear extracts were harvested from COS-7 cells and samples and loaded on a 6% native polyacrylamide gel in TBE buffer (45 mM Tris, 45 mM boric acid, 1 mM EDTA). A ‘COS empty’ control lane was included to show binding of any background endogenous protein to the probe. […] Gels were run at 250 V for 1 hour, 45 minutes at 4° C. then dried under vacuum. […]
ZNF410 contains five tandem C2H2-type zinc fingers (ZFs) potentially involved in DNA binding (FIG. 5A). […] Direct DNA binding by full length (FL) ZNF410 to sequences found at the CHD4 gene was assessed by electrophoretic mobility shift assays (EMSAs). […]

B1: ZF1-5: fragment of human ZNF410 comprising five zinc finger domains ZF1-5 (residues 217-366); dominant-negative when overexpressed (protein)
chain: KKLKCTVEGCDRTFVWPAHFKYHLKTHRNDRSFICPAEGCGKSFYVLQRLKVHMRTHNGEKPFMCHESGCGKQFTTAGNLKNHRRIHTGEKPFLCEAQGCGRSFAEYSSLRKHLVVHSGEKPHQCQVCGKTFSQSGSRNVHMRKHHLQLG
modifications: left off: small tags and cut ends
notes: fragment of human ZNF410 comprising five zinc finger domains ZF1-5 (residues 217-366); dominant-negative when overexpressed
B1 was tested, and the Kd [1] was 22 nM and the “DNA binding in EMSA” value [2] was “strong DNA binding”.
